Data as given in US20260001928A1 (CORTERIA PHARMACEUTICALS, priority 2022, published 2026).
*1 amine or outer side, *2 acyl side, *3 side chain or, on linkers, in order; H or OH if unused. Where no end group is shown, it is not given here. Side-chain parts run from the residue outwards. [ ]: non-standard residue; d: D form. The star is where a group is joined. C18 diacid = O=C(O)CCCCCCCCCCCCCCCCC(=O)*; C16 diacid = O=C(O)CCCCCCCCCCCCCCC(=O)*; γGlu = O=C(O)[C@H](CCC(=O)[*:2])N[*:1]; NMeI = CC[C@H](C)[C@H](NC)C(=O)O; αMeK = C[C@](N)(CCCCN)C(=O)O; Pentanoyl = CCCCC(=O)*; AEEA = NCCOCCOCC(=O)O; Aib = CC(C)(N)C(=O)O

B1: SEQ ID NO 42 (peptide)
peptide: Ac-IVLSLD[dV]PIKLK([AEEA-AEEA-γGlu-C16 diacid])KILLEQEKQKKQREQAETN[Aib]QILAQV-NH2
SMILES: CC[C@H](C)[C@H](NC(C)=O)C(=O)N[C@H](C(=O)N[C@@H](CC(C)C)C(=O)N[C@@H](CO)C(=O)N[C@@H](CC(C)C)C(=O)N[C@@H](CC(=O)O)C(=O)N[C@@H](C(=O)N1CCC[C@H]1C(=O)N[C@H](C(=O)N[C@@H](CCCCN)C(=O)N[C@@H](CC(C)C)C(=O)N[C@@H](CCCCNC(=O)COCCOCCNC(=O)COCCOCCNC(=O)CC[C@H](NC(=O)CCCCCCCCCCCCCCC(=O)O)C(=O)O)C(=O)N[C@@H](CCCCN)C(=O)N[C@H](C(=O)N[C@@H](CC(C)C)C(=O)N[C@@H](CC(C)C)C(=O)N[C@@H](CCC(=O)O)C(=O)N[C@@H](CCC(N)=O)C(=O)N[C@@H](CCC(=O)O)C(=O)N[C@@H](CCCCN)C(=O)N[C@@H](CCC(N)=O)C(=O)N[C@@H](CCCCN)C(=O)N[C@@H](CCCCN)C(=O)N[C@@H](CCC(N)=O)C(=O)N[C@@H](CCCNC(=N)N)C(=O)N[C@@H](CCC(=O)O)C(=O)N[C@@H](CCC(N)=O)C(=O)N[C@@H](C)C(=O)N[C@@H](CCC(=O)O)C(=O)N[C@H](C(=O)N[C@@H](CC(N)=O)C(=O)NC(C)(C)C(=O)N[C@@H](CCC(N)=O)C(=O)N[C@H](C(=O)N[C@@H](CC(C)C)C(=O)N[C@@H](C)C(=O)N[C@@H](CCC(N)=O)C(=O)N[C@H](C(N)=O)C(C)C)[C@@H](C)CC)[C@@H](C)O)[C@@H](C)CC)[C@@H](C)CC)C(C)C)C(C)C
B2: SEQ ID NO 41 (peptide)
peptide: Ac-IVLSLD[dV]PIKLK([γGlu-γGlu-C16 diacid])KILLEQEKQKKQREQAETN[Aib]QILAQV-NH2
SMILES: CC[C@H](C)[C@H](NC(C)=O)C(=O)N[C@H](C(=O)N[C@@H](CC(C)C)C(=O)N[C@@H](CO)C(=O)N[C@@H](CC(C)C)C(=O)N[C@@H](CC(=O)O)C(=O)N[C@@H](C(=O)N1CCC[C@H]1C(=O)N[C@H](C(=O)N[C@@H](CCCCN)C(=O)N[C@@H](CC(C)C)C(=O)N[C@@H](CCCCNC(=O)CC[C@H](NC(=O)CC[C@H](NC(=O)CCCCCCCCCCCCCCC(=O)O)C(=O)O)C(=O)O)C(=O)N[C@@H](CCCCN)C(=O)N[C@H](C(=O)N[C@@H](CC(C)C)C(=O)N[C@@H](CC(C)C)C(=O)N[C@@H](CCC(=O)O)C(=O)N[C@@H](CCC(N)=O)C(=O)N[C@@H](CCC(=O)O)C(=O)N[C@@H](CCCCN)C(=O)N[C@@H](CCC(N)=O)C(=O)N[C@@H](CCCCN)C(=O)N[C@@H](CCCCN)C(=O)N[C@@H](CCC(N)=O)C(=O)N[C@@H](CCCNC(=N)N)C(=O)N[C@@H](CCC(=O)O)C(=O)N[C@@H](CCC(N)=O)C(=O)N[C@@H](C)C(=O)N[C@@H](CCC(=O)O)C(=O)N[C@H](C(=O)N[C@@H](CC(N)=O)C(=O)NC(C)(C)C(=O)N[C@@H](CCC(N)=O)C(=O)N[C@H](C(=O)N[C@@H](CC(C)C)C(=O)N[C@@H](C)C(=O)N[C@@H](CCC(N)=O)C(=O)N[C@H](C(N)=O)C(C)C)[C@@H](C)CC)[C@@H](C)O)[C@@H](C)CC)[C@@H](C)CC)C(C)C)C(C)C
B3: SEQ ID NO 5 (peptide)
peptide: [NMeI]VLSLD[dV]PIKLK([γGlu-C16 diacid])QILLKQERQKKQREQAEKNKQILEQV-NH2
modifications: N-terminus assumed
SMILES: CC[C@H](C)[C@H](NC)C(=O)N[C@H](C(=O)N[C@@H](CC(C)C)C(=O)N[C@@H](CO)C(=O)N[C@@H](CC(C)C)C(=O)N[C@@H](CC(=O)O)C(=O)N[C@@H](C(=O)N1CCC[C@H]1C(=O)N[C@H](C(=O)N[C@@H](CCCCN)C(=O)N[C@@H](CC(C)C)C(=O)N[C@@H](CCCCNC(=O)CC[C@H](NC(=O)CCCCCCCCCCCCCCC(=O)O)C(=O)O)C(=O)N[C@@H](CCC(N)=O)C(=O)N[C@H](C(=O)N[C@@H](CC(C)C)C(=O)N[C@@H](CC(C)C)C(=O)N[C@@H](CCCCN)C(=O)N[C@@H](CCC(N)=O)C(=O)N[C@@H](CCC(=O)O)C(=O)N[C@@H](CCCNC(=N)N)C(=O)N[C@@H](CCC(N)=O)C(=O)N[C@@H](CCCCN)C(=O)N[C@@H](CCCCN)C(=O)N[C@@H](CCC(N)=O)C(=O)N[C@@H](CCCNC(=N)N)C(=O)N[C@@H](CCC(=O)O)C(=O)N[C@@H](CCC(N)=O)C(=O)N[C@@H](C)C(=O)N[C@@H](CCC(=O)O)C(=O)N[C@@H](CCCCN)C(=O)N[C@@H](CC(N)=O)C(=O)N[C@@H](CCCCN)C(=O)N[C@@H](CCC(N)=O)C(=O)N[C@H](C(=O)N[C@@H](CC(C)C)C(=O)N[C@@H](CCC(=O)O)C(=O)N[C@@H](CCC(N)=O)C(=O)N[C@H](C(N)=O)C(C)C)[C@@H](C)CC)[C@@H](C)CC)[C@@H](C)CC)C(C)C)C(C)C
B4: SEQ ID NO 106 (peptide)
peptide: Ac-IVLSLD[dV]PIKLK([AEEA-AEEA-γGlu-C18 diacid])KILLEQEKQKKQREQAETN[αMeK]QILAQV-NH2
modifications: not fully specified
B5: SEQ ID NO 32 (peptide)
peptide: Pentanoyl-VLSLD[dV]PIKLK([AEEA-AEEA-γGlu-γGlu-C18 diacid])QILLKQERQKKQREQAEKN[Aib]QILEQV-NH2
SMILES: CCCCC(=O)N[C@H](C(=O)N[C@@H](CC(C)C)C(=O)N[C@@H](CO)C(=O)N[C@@H](CC(C)C)C(=O)N[C@@H](CC(=O)O)C(=O)N[C@@H](C(=O)N1CCC[C@H]1C(=O)N[C@H](C(=O)N[C@@H](CCCCN)C(=O)N[C@@H](CC(C)C)C(=O)N[C@@H](CCCCNC(=O)COCCOCCNC(=O)COCCOCCNC(=O)CC[C@H](NC(=O)CC[C@H](NC(=O)CCCCCCCCCCCCCCCCC(=O)O)C(=O)O)C(=O)O)C(=O)N[C@@H](CCC(N)=O)C(=O)N[C@H](C(=O)N[C@@H](CC(C)C)C(=O)N[C@@H](CC(C)C)C(=O)N[C@@H](CCCCN)C(=O)N[C@@H](CCC(N)=O)C(=O)N[C@@H](CCC(=O)O)C(=O)N[C@@H](CCCNC(=N)N)C(=O)N[C@@H](CCC(N)=O)C(=O)N[C@@H](CCCCN)C(=O)N[C@@H](CCCCN)C(=O)N[C@@H](CCC(N)=O)C(=O)N[C@@H](CCCNC(=N)N)C(=O)N[C@@H](CCC(=O)O)C(=O)N[C@@H](CCC(N)=O)C(=O)N[C@@H](C)C(=O)N[C@@H](CCC(=O)O)C(=O)N[C@@H](CCCCN)C(=O)N[C@@H](CC(N)=O)C(=O)NC(C)(C)C(=O)N[C@@H](CCC(N)=O)C(=O)N[C@H](C(=O)N[C@@H](CC(C)C)C(=O)N[C@@H](CCC(=O)O)C(=O)N[C@@H](CCC(N)=O)C(=O)N[C@H](C(N)=O)C(C)C)[C@@H](C)CC)[C@@H](C)CC)[C@@H](C)CC)C(C)C)C(C)C

Experiments:
CRF1R receptor = target: T1, CRF1R receptor (UniProt P34998 24-415, limits assumed); assay: cell-based or functional assay
T1 sequence (looked up): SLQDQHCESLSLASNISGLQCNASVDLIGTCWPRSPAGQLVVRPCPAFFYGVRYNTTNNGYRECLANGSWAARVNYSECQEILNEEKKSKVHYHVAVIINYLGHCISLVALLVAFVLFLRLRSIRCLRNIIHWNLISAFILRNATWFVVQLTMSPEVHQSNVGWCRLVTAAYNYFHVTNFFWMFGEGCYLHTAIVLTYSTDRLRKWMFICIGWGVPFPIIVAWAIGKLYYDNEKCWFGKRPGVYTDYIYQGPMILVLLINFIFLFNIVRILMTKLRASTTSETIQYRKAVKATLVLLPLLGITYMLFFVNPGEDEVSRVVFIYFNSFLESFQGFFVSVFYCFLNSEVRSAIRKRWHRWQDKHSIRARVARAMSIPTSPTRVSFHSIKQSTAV

[1] = target: human corticotropin-releasing factor 2a (CRF2a receptor) (human), Q13324; assay: cell-based or functional assay
human corticotropin-releasing factor 2a (CRF2a receptor) (human), Q13324, sequence (Q13324 20-411): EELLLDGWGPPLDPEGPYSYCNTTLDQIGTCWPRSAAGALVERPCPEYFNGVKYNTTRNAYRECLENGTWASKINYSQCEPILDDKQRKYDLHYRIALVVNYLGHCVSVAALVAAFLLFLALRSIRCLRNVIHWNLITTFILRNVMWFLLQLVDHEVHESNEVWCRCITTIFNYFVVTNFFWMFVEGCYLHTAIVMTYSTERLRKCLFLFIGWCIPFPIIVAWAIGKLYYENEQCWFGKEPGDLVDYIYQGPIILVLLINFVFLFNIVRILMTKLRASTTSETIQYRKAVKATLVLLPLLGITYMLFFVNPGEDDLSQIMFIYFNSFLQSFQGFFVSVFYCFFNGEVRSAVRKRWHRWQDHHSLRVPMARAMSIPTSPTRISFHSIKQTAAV

Row | Binder | Emax (% I) (CRF1R receptor) [%] | EC50 [nM] (cAMP) [1] | EC50 (CRF1R receptor) [nM]
1 | B1 | 1 | 3.08 | 
2 | B2 | 7 | 1.85 | 
3 | B3 | 48 | 0.09 | 158
4 | B4 | 6 | 0.35 | 
5 | B5 | 5 | 1.04 | > 250
